Where a chain is given by its changes, count along the chain named. In names and notes the source's numbering stands.

We go through 4 molecules from EP3574020B1.

Test [1] concerns the target A-beta42 Oligomer (synthetic) (human). As to the kind of experiment: SPR; purified antibody immobilized, A-beta injected.
For test [2], the target named is T1, cyclo(CGHHQKG) cyclic peptide, conjugated to BSA.
T1 sequence (peptide, cyclized peptide, cyclo(CGHHQKG); conjugated to BSA): CGHHQKG
Briefly: MAAS-2 SPR; antibody immobilized, cyclopeptide-BSA at pH 6.5, 7.5 or 8.0.

Test [3] addresses A-beta oligomers in the low molecular weight (LMW, ~8-70 kDa) fraction of soluble human AD brain extract (human) (UniProt P05067). As to the kind of experiment: SPR; antibody immobilized, SEC fraction at 100ug/ml.
Test [4] deals with T2, linear CGHHQKG peptide, conjugated to BSA.
T2 sequence (peptide, conjugated to BSA): CGHHQKG
Briefly: SPR direct binding; hybridoma supernatant over immobilized BSA-conjugated peptide.

For test [5], the target named is T1, cyclo(CGHHQKG) cyclic peptide, conjugated to BSA. The test is described as above.
Test [6] concerns the target A-beta42 Oligomer (synthetic) (human). As to the kind of experiment: SPR direct binding; hybridoma supernatant over immobilized A-beta42 oligomer.
Test [7] concerns the target A-beta42 Monomer (human). Briefly: SPR; purified antibody immobilized, A-beta injected.
The target of test [8] is A-beta42 Monomer (human). As to the kind of experiment: SPR direct binding; hybridoma supernatant over immobilized A-beta42 monomer.
A-beta42 Monomer (human), sequence (peptide, as listed by the source): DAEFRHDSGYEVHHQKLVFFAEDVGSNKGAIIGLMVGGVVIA
In test [9] the target is commercially-prepared stable A-beta42 Oligomers (SynAging) (human). As to the kind of experiment: SPR; antibody covalently immobilized, stable A-beta42 oligomers at 1 microM.
commercially-prepared stable A-beta42 Oligomers (SynAging) (human), sequence (peptide, as listed by the source): as above

A-beta42 Oligomer (synthetic) (human), sequence (peptide, as listed by the source): as above
A-beta oligomers in the low molecular weight (LMW, ~8-70 kDa) fraction of soluble human AD brain extract (human), sequence (P05067 672-713): as the sequence (peptide, as listed by the source) above

B1: 301-17 mouse monoclonal antibody, hybridoma-purified IgG3 (antibody, V domains shown)
VH: QVQLQQPGAELVKPGASVKMSCKASGYSFTSYWINWVKQRPGQGLEWIGDVHPGRGVSTYNAKFKSKATLTLDTSSSTAYMQLSSLTSEDSAVYYCSRSHGNTYWFFDVWGAGTTVTVSSATTTAPS
VL: DVLMTQTPLSLPVSLGDQASISCRSSQSIVHSNGNTYLEWYLQKPGQSPKLLIYKVSNRFSGVPDRFSGSGSGTDFTLKISRVEAEDLGVYYCFQGSHVPFTFGSGTKLEIKRADA
In turn, B1 yielded an RU in [1] of 148 RU.

B2: Recombinant 301-17 IgG1 (murine IgG1 backbone) (antibody, V domains shown)
VH: QVQLQQPGAELVKPGASVKMSCKASGYSFTSYWINWVKQRPGQGLEWIGDVHPGRGVSTYNAKFKSKATLTLDTSSSTAYMQLSSLTSEDSAVYYCSRSHGNTYWFFDVWGAGTTVTVSS
VL: DVLMTQTPLSLPVSLGDQASISCRSSQSIVHSNGNTYLEWYLQKPGQSPKLLIYKVSNRFSGVPDRFSGSGSGTDFTLKISRVEAEDLGVYYCFQGSHVPFTFGSGTKLEIKR
Consider B2, for which the BRU in test [2] was 400 BRU.

B3: Humanized antibody of 301-17 (VH2 Vk5), human IgG4 (S241P hinge variant) / kappa (antibody, V domains shown)
VH: B2 VH with Q5V, P7S, L11V, V12K, K67R, S76I, Q82E, T87R, S91T, A112Q
VL: B2 VL with T7S, S14T, D17Q, Q18P, L42Q, K44R, K50R, L88V, S105Q
On to B3, for which the fold binding response against aducanumab in test [3] lay in the range of 1.5 to 2 fold.

B4: 301-11 mouse monoclonal antibody (IgG3, kappa) (antibody, V domains shown)
VH: EVQLVESGGGLVKPGGSLKLSCAASGFTFSDYYMYWVRQTPEKRLEWVATISDGGSYTSYPDSVKGRFTISRDNAKNNLYLQMSSLRSEDTAMYYCARDYYGSSSYTSGFAYWGQGTLVTVSA
VL: DIVMSQSPSSLAVSTGEKVTMSCKSSQSLLNSRTRKNYLAWYQQKPGQSPKLLIYWASTRESGVPDRFTGSGSGTDFTLTISSVQAEDLAVYYCKQSYNLYTFGGGTKLEIK
For the molecule B4, the RU in test [4] was 210 RU; in test [5] it was 488 RU; in test [6], 75.3 RU; in test [1], -2.8 RU; with A-beta42 Monomer (human) [7] it was -14.1 RU; in the test with A-beta42 Monomer (human) [8], 21.6 RU. Also, the binding response units (BRU), average in [9] was 19.3 BRU.
